Laboratory results from patent US20070160576A1, “IL-17A/F heterologous polypeptides and therapeutic uses thereof” (Genentech, Inc., priority 2001, published 2007).
“Also recorded” adds a separate entry of the source. Read-outs that look alike come from different tables or passages of the source.

B1: PRO1122 (IL-17C ligand) (ligand, UniProt Q9P0M4 19-197, looked up)
chain: HHDPSLRGHPHSHGTPHCYSAEELPLGQAPPHLLARGAKWGQALPVALVSSLEAASHRGRHERPSATTQCPVLRPEEVLEADTHQRSISPWRYRVDTDEDRYPQKLAFAECLCRGCIDARTGRETAALNSVRLLQSLLVLRRRPCSRDGSGLPTPGAFAFHTEFIHVPVGCTCVLPRSV
B2: PRO21175 (IL-17D ligand) (ligand, UniProt Q8TAD2 16-202, looked up)
chain: AGAPRAGRRPARPRGCADRPEELLEQLYGRLAAGVLSAFHHTLQLGPREQARNASCPAGGRPADRRFRPPTNLRSVSPWAYRISYDPARYPRYLPEAYCLCRGCLTGLFGEEDVRFRSAPVYMPTVVLRRTPACAGGRSVYTEAYVTIPVGCTCVPEPEKDADSINSSIDKQGAKLLLGPNDAPAGP
B3: IL-17F: human IL-17F ligand, SEQ ID NO:4 (protein, listed as Homo sapiens)
chain: MTVKTLHGPAMVKYLLLSILGLAFLSEAAARKIPKVGHTFFQKPESCPPVPGGSMKLDIGIINENQRVSMSRNIESRSTSPWNYTVTWDPNRYPSEVVQAQCRNLGCINAQGKEDISMNSVPIQQETLVVRRKHQGCSVSFQLEKVLVTVGCTCVTPVIHHVQ

Tests used:
[1] = molecular target: T1, PRO5801 (human IL-17RH1 receptor) as tested in the receptor/ligand screen (human, UniProt Q9NRM6 18-292, limits assumed); assay: receptor/ligand screen, FIG. 14
T1 sequence (looked up): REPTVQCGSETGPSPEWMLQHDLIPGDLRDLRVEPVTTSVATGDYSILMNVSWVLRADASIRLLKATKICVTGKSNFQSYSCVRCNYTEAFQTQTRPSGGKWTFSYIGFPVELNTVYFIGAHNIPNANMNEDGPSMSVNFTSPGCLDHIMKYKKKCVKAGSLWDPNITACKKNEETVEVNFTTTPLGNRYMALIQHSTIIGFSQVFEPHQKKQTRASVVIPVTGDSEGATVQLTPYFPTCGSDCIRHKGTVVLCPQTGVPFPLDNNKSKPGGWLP
Text: A PRO polypeptide of the present invention suspected of being a ligand for a receptor is expressed as a fusion protein containing the Fc domain of human IgG (an immunoadhesin). Receptor-ligand binding is detected by allowing interaction of the immunoadhesin polypeptide with cells (e.g. Cos cells) expressing candidate PRO polypeptide receptors and visualization of bound immunoadhesin with fluorescent reagents directed toward the Fc fusion domain and examination by microscope. Cells expressing candidate receptors are produced by transient transfection, in parallel, of defined subsets of a library of cDNA expression vectors encoding PRO polypeptides that may function as receptor molecules. Cells are then incubated for 1 hour in the presence of the PRO polypeptide immunoadhesin being tested for possible receptor binding. The cells are then washed and fixed with paraformaldehyde. The cells are then incubated with fluorescent conjugated antibody directed against the Fc portion of the PRO polypeptide immunoadhesin (e.g. FITC conjugated goat anti-human-Fc antibody). The cells are then washed again and examined by microscope. A positive interaction is judged by the presence of fluorescent labeling of cells transfected with cDNA encoding a particular PRO polypeptide receptor or pool of receptors and an absence of similar fluorescent labeling of similarly prepared cells that have been transfected with other cDNA or pools of cDNA. If a defined pool of cDNA expression vectors is judged to be positive for interaction with a PRO polypeptide immunoadhesin, the individual cDNA species that comprise the pool are tested individually (the pool is “broken down”) to determine the specific cDNA that encodes a receptor able to interact with the PRO polypeptide immunoadhesin.
In another embodiment of this assay, an epitope-tagged potential ligand PRO polypeptide (e.g., 8 histidine “His” tag) is allowed to interact with a panel of potential receptor PRO polypeptide molecules that have been expressed as fusions with the Fc domain of human IgG (immunoadhesins). Following a 1 hour co-incubation with the epitope tagged PRO polypeptide, the candidate receptors are each immunoprecipitated with protein A beads and the beads are washed. Potential ligand interaction is determined by Western blot analysis of the immunoprecipitated complexes with antibody directed towards the epitope tag.

[2] = molecular target: human IL-17 receptor (IL-17R, PRO1) (Homo sapiens, UniProt Q96F46); assay: Receptor/ligand interaction screening assay (immunoadhesin); format: binding
Protocol: (§1) In general, the assay is performed as follows. A PRO polypeptide of the present invention suspected of being a ligand for a receptor is expressed as a fusion protein containing the Fc domain of human IgG (an immunoadhesin). Receptor-ligand binding is detected by allowing interaction of the immunoadhesin polypeptide with cells (e.g. Cos cells) expressing candidate PRO polypeptide receptors and visualization of bound immunoadhesin with fluorescent reagents directed toward the Fc fusion domain and examination by microscope. Cells expressing candidate receptors are produced by transient transfection, in parallel, of defined subsets of a library of cDNA expression vectors encoding PRO polypeptides that may function as receptor molecules. Cells are then incubated for 1 hour in the presence of the PRO polypeptide immunoadhesin being tested for possible receptor binding. The cells are then washed and fixed with paraformaldehyde. The cells are then incubated with fluorescent conjugated antibody directed against the Fc portion of the PRO polypeptide immunoadhesin (e.g. FITC conjugated goat anti-human-Fc antibody). The cells are then washed again and examined by microscope. A positive interaction is judged by the presence of fluorescent labeling of cells transfected with cDNA encoding a particular PRO polypeptide receptor or pool of receptors and an absence of similar fluorescent labeling of similarly prepared cells that have been transfected with other cDNA or pools of cDNA. If a defined pool of cDNA expression vectors is judged to be positive for interaction with a PRO polypeptide immunoadhesin, the individual cDNA species that comprise the pool are tested individually (the pool is “broken down”) to determine the specific cDNA that encodes a receptor able to interact with the PRO polypeptide immunoadhesin.
(§2) In another embodiment of this assay, an epitope-tagged potential ligand PRO polypeptide (e.g., 8 histidine “His” tag) is allowed to interact with a panel of potential receptor PRO polypeptide molecules that have been expressed as fusions with the Fc domain of human IgG (immunoadhesins). Following a 1 hour co-incubation with the epitope tagged PRO polypeptide, the candidate receptors are each immunoprecipitated with protein A beads and the beads are washed. Potential ligand interaction is determined by Western blot analysis of the immunoprecipitated complexes with antibody directed towards the epitope tag. An interaction is judged to occur if a band of the anticipated molecular weight of the epitope tagged protein is observed in the Western blot analysis with a candidate receptor, but is not observed to occur with the other members of the panel of potential receptors.

[3] = molecular target: T2, PRO20040 (human IL-17RH2 receptor) (Homo sapiens, UniProt Q8NAC3); assay: as above; format: binding
T2 sequence (Q8NAC3 21-791): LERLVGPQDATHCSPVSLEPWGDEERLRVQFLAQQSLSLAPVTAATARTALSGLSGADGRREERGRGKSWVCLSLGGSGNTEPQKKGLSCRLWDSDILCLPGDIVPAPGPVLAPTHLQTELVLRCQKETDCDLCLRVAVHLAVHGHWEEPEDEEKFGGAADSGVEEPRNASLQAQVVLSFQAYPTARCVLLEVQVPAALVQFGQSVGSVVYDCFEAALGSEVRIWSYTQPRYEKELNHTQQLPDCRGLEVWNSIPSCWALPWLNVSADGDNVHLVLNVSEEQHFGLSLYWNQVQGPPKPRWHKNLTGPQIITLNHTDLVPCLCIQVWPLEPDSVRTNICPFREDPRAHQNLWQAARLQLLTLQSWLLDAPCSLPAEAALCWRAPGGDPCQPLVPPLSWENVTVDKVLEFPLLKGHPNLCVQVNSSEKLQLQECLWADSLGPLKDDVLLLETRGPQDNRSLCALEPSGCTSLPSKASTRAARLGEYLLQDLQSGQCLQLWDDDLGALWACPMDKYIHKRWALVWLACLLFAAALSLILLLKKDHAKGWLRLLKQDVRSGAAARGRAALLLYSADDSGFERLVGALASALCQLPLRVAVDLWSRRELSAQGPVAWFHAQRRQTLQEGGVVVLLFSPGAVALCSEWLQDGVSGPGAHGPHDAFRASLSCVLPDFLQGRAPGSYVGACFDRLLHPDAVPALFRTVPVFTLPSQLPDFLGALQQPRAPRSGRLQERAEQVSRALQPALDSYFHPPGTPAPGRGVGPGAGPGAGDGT
Protocol: as §1, §2

Row | Molecule | binding result [1] | binding to human IL-17 receptor (IL-17R, PRO1) [2] | binding to human IL-17 receptor (IL-17R, PRO1) ([2]; listed as PRO1122) | binding to IL-17RH2 receptor (PRO20040) [3] | binding to IL-17RH2 receptor (PRO20040) ([3]; listed as PRO20110)
1 | B1 | no binding | do not interact | do not bind | do not interact | 
2 | B2 | no binding | do not interact |  | do not interact | 
3 | B3 |  | binds to |  | has been shown to bind; also recorded: binds to | binds to
